Test results published in patent US20230032643A1 (GlaxoSmithKline, published 2023).

How the values were obtained:
[1] = target: T1, human CR2 on primary human cells (B cells in PBMCs; tonsil follicular dendritic cells) (human, UniProt P20023 21-1033); assay: flow cytometry; inhibition of C3dg:streptavidin-APC ligand complex binding to primary human tonsil FDCs, mAb pre-incubated
T1 construct: Endogenous CR2 on primary human CD20+ B cells or tonsil FDCs; also called CD21
T1 sequence: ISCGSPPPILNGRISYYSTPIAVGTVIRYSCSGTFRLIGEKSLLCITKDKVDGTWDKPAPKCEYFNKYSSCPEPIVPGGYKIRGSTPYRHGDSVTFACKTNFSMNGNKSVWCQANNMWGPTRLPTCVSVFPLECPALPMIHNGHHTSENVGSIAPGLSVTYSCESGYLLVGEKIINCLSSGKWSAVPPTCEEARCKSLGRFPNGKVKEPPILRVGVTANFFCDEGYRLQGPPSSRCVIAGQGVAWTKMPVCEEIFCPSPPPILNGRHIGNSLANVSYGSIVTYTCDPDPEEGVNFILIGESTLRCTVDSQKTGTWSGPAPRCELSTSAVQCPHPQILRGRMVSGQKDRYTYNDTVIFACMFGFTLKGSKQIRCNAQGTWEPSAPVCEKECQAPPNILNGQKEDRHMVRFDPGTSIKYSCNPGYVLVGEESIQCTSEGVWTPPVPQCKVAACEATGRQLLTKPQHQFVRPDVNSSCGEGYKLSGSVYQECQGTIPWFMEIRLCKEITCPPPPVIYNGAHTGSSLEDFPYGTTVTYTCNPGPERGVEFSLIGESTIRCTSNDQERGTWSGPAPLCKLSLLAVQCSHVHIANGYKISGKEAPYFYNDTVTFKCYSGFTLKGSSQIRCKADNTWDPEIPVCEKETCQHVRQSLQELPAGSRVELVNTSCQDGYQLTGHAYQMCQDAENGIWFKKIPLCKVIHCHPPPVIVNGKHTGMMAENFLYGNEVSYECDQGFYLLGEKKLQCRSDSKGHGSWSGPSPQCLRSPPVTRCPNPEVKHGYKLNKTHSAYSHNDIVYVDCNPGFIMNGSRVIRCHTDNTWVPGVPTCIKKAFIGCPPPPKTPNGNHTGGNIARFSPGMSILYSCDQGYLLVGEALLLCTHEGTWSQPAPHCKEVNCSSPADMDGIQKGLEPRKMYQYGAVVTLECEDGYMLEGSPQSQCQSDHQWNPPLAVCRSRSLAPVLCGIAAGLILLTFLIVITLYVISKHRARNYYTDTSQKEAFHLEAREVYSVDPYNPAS

[2] = target: T1, human CR2 on primary human cells (B …); assay: flow cytometry on primary human tonsil FDCs; unlabelled mAb 1053 titrated, then saturating mAb 1053-PE (1 ug/ml)
[3] = target: T2, recombinant soluble cynomolgus macaque CR2 (cynomolgus macaque, UniProt A0A2K5URG6 21-972); assay: SPR (BIACORE T200), HEK-expressed antibody captured on Protein A, soluble CR2 as analyte, 25 C, equilibrium model
T2 construct: also called Cyno CR2; cyno CR2 antigen
T2 sequence: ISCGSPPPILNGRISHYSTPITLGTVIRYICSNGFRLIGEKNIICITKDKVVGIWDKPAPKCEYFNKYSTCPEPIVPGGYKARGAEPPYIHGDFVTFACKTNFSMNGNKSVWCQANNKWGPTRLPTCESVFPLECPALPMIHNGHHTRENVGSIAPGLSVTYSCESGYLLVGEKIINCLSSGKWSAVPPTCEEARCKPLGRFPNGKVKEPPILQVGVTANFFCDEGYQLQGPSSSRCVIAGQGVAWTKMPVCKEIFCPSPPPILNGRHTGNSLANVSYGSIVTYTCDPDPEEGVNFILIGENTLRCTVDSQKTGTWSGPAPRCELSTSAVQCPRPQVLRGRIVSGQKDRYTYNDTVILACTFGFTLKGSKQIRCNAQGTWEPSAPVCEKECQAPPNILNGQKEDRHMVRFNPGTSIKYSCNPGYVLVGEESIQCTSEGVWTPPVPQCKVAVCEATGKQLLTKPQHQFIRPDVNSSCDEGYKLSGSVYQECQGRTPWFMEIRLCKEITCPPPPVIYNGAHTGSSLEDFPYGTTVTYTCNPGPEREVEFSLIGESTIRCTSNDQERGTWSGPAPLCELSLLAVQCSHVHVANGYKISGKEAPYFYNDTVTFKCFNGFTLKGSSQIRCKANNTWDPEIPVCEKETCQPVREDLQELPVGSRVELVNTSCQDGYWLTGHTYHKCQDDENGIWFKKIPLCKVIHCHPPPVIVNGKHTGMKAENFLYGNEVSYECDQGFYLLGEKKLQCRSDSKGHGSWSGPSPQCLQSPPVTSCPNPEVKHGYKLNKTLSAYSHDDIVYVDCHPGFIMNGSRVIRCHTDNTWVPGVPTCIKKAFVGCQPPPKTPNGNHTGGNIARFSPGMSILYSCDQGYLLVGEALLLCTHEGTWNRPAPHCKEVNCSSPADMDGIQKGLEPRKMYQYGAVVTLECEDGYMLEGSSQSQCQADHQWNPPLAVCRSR

[4] = target: T3, recombinant soluble human CR2 (human, UniProt P20023 21-971, limits assumed); assay: as above
T3 construct: it includes the transmembrane and cytoplasmic parts, which a soluble form would lack; also called human CR2 antigen
T3 sequence: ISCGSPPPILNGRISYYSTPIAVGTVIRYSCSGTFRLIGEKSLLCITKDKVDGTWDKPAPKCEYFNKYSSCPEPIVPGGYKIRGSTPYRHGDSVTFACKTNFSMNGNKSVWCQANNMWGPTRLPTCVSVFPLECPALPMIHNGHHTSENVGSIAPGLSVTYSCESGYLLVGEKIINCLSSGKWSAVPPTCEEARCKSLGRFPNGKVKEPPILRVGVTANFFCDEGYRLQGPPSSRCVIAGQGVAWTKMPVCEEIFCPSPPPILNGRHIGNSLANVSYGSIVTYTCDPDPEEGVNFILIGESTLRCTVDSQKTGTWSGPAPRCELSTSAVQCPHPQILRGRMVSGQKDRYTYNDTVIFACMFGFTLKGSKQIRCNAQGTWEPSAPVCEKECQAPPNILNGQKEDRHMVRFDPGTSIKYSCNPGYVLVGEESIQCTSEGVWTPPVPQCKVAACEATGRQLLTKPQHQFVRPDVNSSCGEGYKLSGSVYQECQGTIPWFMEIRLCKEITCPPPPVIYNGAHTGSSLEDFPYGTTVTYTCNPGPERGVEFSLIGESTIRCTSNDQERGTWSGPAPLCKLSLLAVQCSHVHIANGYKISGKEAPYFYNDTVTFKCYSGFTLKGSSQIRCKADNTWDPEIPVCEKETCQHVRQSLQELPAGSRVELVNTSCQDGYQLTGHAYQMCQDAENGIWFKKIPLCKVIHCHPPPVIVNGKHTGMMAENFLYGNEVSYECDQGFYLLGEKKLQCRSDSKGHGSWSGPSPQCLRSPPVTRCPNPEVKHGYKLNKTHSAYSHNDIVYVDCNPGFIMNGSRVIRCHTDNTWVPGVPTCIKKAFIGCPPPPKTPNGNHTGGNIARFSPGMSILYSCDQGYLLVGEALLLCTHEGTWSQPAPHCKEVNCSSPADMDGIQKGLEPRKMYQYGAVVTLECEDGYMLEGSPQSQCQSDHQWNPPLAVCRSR

[5] = target: T1, human CR2 on primary human cells (B …); assay: flow cytometry; inhibition of C3dg:Streptavidin-APC complex binding to CD20+ B cells in human PBMCs, mAb pre-incubated
[6] = target: T1, human CR2 on primary human cells (B …); assay: flow cytometry; inhibition of serum-opsonised PnPS14 binding to CD20+ B cells in human PBMCs, mAb pre-incubated

B1: mAb 1053 (antibody, human IgG1, kappa, V domains shown)
VH: QLQLQESGPGLVKPSETLSLTCTVSGGSISSDSYYWGWIRQPPGKGLEWIGSIHYSGSTYYNPPLESRVTISVDTSKNQFSLKLSSVTAADTAVYYCAREGGPRHGWSWGQGTLVTVSS
VL: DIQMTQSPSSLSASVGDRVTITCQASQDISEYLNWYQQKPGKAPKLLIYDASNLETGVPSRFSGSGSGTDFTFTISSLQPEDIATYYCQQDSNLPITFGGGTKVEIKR
notes: CHO-expressed unless stated otherwise
IC50 [1]: 0.047 nM | EC50 [2]: 0.0622 nM | Kd [3]: 0.287 nM | Kd [4]: 0.257 nM | IC50 [5]: 0.0119 nM | IC50 [6]: 0.0379 nM
